This note sets out measurements from patent publication US20260049134A1 (UNIVERSITY OF FLORIDA RESEARCH FOUNDATION, published 2026).

Changes are numbered by the printed parent chain. Names and notes keep the numbering of the source.

The target of test [1] is T1, PTPRG, endogenous in H929 multiple myeloma cells (human, UniProt P23470 20-1445).
T1 construct: Native protein on H929 cells (flow cytometry, siRNA knockdown) and in H929 lysates (IP/MS); also called phosphatase receptor type γ
Put plainly: flow cytometry, H929 + CADM1 siRNA; None 0.89.

In test [2] the target is T1, PTPRG, endogenous in H929 multiple …. Put plainly: flow cytometry, H929 + PTPRG siRNA (target knocked down); None 490.
For test [3] the target is unchanged. Put plainly: flow cytometry, H929 + CADM1 siRNA; None 449.
The target of test [4] is T2, ICAM1, endogenous in H929 multiple myeloma cells (human, UniProt P05362 28-532).
T2 construct: Native protein on H929 cells (flow cytometry, siRNA knockdown) and in H929 lysates (IP/MS); also called CD54
T2 sequence (P05362 28-532 limits assumed): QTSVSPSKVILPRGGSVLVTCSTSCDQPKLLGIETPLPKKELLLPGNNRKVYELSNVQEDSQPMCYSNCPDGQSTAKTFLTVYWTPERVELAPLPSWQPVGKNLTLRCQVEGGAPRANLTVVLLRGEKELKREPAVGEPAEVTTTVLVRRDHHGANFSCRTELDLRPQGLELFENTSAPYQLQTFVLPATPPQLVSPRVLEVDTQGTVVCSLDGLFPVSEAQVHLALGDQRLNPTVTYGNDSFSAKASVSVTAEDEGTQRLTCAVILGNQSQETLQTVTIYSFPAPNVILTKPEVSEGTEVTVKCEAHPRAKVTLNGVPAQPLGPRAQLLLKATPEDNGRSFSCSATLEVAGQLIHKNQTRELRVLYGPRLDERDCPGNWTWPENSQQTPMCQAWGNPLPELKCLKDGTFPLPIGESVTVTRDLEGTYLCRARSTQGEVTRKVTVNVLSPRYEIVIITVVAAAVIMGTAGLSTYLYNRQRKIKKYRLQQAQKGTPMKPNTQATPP
Put plainly: IP from H929 cell lysate, LC-MS/MS, heatmap. As for the experimental part: (§1) Immunoprecipitation. […] After 30 min of rocking at 4° C., and lysates were centrifuged at 18,400×g for 20 min at 4° C. Subsequently, 1-mL aliquots of the supernatants were pre-cleared twice with Protein G agarose (Thermo Fisher Scientific) by adding 50 μL of 50% resin slurry and incubating 30 min with end-over-end tumbling at 4° C., followed by centrifugation at 16,000×g for 5 min and pooling of the pre-cleared cell lysate aliquots. Representative mAbs from each cluster were immobilized on Protein G agarose at a ratio of 25 μg IgG1 per 30 μL of 50% slurry, diluted to 500 μL with Dulbecco's PBS (DPBS) and incubated for 1 h at 4° C. with tumbling, followed by centrifugation at 5,000×g for 30 s and 2 washes with lysis buffer. After the last wash, the ˜15 μL of IgG1-coated resin was blocked with 10 μL of 10% BSA (MilliporeSigma). Next, 1 mL of the pooled pre-cleared cell lysate was added to the IgG1-coated resin and incubated for 3 h at 4° C. with tumbling. The immune complexes were pelleted by centrifugation at 2,500×g at 4° C. for 30 s, and gently resuspended to wash for 3 min in 1 mL of lysis buffer, which was repeated once with lysis buffer and twice with an identical wash buffer lacking Triton X-100. Finally, the immune complexes were eluted from the resin with three batch-wise steps using 30 μL of elution buffer (6 or 8 M urea (MilliporeSigma), 20 mM Tris-HCl pH 7.5, and 100 mM NaCl) and incubating 15 min at RT with 450 rpm orbital agitation. Finally, 16 μL of the eluate (˜20%) was analyzed on a reducing SDS-PAGE gel stained with SYPRO Ruby dye (Bio-Rad Laboratories), while the rest was stored at −80° C. prior to LC-MS/MS analysis.
(§2) Protein elutions in 6 or 8 M urea were reduced with 15 mM dithiothreitol at 56° C. for 30 min followed by alkylation with 30 mM iodoacetamide in the dark at RT. The elutions were then diluted to 1 M urea with 50 mM ammonium bicarbonate pH 7.8 and digested overnight at 37° C. following the addition of 4 μg trypsin (Promega).

Test [5] deals with T3, CADM1, endogenous in H929 multiple myeloma cells (human, UniProt Q9BY67 45-442).
T3 construct: Native protein on H929 cells (flow cytometry, siRNA knockdown) and in H929 lysates (IP/MS); also called IGSF4A
T3 sequence: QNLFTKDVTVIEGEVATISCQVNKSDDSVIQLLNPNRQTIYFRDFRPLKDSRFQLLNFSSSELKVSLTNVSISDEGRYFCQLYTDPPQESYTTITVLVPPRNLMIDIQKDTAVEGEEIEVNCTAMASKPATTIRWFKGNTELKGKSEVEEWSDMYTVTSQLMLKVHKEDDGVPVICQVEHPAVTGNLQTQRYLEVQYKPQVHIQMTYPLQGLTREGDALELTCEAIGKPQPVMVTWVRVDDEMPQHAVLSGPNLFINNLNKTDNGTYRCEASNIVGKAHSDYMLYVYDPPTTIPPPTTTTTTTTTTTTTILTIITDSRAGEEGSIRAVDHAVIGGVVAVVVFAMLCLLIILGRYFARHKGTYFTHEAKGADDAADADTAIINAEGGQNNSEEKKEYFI
Put plainly: IP from H929 cell lysate, LC-MS/MS, heatmap. On the procedure: as §1, §2

Test [6] has as its target T1, PTPRG, endogenous in H929 multiple …. Put plainly: IP from H929 cell lysate, LC-MS/MS, heatmap. On the procedure: as §1, §2
Test [7] has as its target T3, CADM1, endogenous in H929 multiple …. Put plainly: flow cytometry, IgG1 on H929 cells. On the procedure:
Staining protocol. Cells were harvested (5×10⁴ cells per sample), washed once with phosphate-buffered saline (PBS) at RT, and a second time with ice-cold FACS buffer (PBS, 0.5% BSA, 2 mM EDTA, 0.1% NaN₃). Cells were stained in 50 μL of primary antibody for 30 min on ice, washed twice with 100 μL FACS buffer, stained with 50 μL of diluted secondary antibody, washed two more times in FACS, and then resuspended in 50 μL FACS buffer. Samples were acquired on an Accuri C6 Plus or a BD FACSCanto II flow cytometer (both from BD Biosciences). Data were analyzed using FlowJo version 10 software. Primary antibodies: Fab (10 μg/mL), IgG1 (0.1 to 50 μg/mL), or 25 μL polyclonal Fabs from periplasmic extracts. Polyclonal Fabs were produced by diluting bacterial stocks by a factor of 100 in autoinduction media and incubating overnight to induce expression as previously described. […] Viability stains: DAPI (Cell Signaling Technology) or SYTOX AADvanced Dead Cell Stain (Thermo Fisher Scientific). Labeling: The panel of chimeric rabbit/human IgG1s was labeled using the Alexa Fluor 647 Labeling Kit (Thermo Fisher Scientific, #A20173) to facilitate single-step staining. Competition: Unlabeled IgG1s were added at saturating concentrations of 60 μg/mL to block the target receptors, incubating on ice for 30 min, followed by the addition of an equal volume of the Alexa Fluor 647 labeled antibody at 2 μg/mL, and the mixture was incubated on ice for another 30 min.

Test [8] shares this target. Put plainly: flow cytometry, H929 + vehicle; None 513.

T1 sequence (P23470 20-1445 limits assumed): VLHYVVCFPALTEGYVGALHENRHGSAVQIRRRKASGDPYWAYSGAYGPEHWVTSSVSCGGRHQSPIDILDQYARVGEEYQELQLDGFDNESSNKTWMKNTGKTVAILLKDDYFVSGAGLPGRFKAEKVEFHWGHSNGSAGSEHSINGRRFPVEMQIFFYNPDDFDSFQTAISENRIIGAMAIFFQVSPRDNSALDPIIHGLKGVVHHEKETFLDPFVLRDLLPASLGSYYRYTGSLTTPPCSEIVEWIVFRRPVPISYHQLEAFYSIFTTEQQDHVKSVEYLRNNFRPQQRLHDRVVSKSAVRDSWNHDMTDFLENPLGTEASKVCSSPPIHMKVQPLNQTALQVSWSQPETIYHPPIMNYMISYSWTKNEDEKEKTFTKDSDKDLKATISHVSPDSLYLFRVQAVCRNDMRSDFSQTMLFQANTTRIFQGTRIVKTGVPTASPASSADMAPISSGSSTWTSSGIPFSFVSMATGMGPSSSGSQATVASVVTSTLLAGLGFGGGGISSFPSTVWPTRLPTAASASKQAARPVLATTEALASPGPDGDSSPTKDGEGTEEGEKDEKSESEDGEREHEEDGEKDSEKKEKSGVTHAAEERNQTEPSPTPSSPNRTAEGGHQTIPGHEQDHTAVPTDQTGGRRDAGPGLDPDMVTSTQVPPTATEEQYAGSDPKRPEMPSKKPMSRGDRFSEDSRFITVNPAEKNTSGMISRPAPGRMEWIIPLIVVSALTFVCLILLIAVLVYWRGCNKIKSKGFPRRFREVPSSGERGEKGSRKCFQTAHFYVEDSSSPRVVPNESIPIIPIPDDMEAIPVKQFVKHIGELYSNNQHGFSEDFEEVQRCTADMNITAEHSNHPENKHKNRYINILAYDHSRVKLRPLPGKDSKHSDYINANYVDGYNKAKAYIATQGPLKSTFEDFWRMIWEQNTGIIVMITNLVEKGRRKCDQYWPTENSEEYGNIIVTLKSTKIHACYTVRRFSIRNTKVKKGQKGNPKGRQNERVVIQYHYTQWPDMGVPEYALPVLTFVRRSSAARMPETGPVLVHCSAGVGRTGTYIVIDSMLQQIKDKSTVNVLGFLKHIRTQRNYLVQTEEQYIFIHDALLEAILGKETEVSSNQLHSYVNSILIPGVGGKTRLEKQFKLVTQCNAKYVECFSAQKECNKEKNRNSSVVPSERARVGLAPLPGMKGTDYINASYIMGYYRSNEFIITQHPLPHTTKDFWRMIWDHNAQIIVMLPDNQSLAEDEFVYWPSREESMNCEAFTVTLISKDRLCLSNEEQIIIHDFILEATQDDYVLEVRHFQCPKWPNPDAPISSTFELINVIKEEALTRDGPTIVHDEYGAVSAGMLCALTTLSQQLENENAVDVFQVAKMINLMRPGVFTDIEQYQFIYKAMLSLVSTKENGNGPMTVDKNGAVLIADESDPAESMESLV

B1: HW-42 chimeric rabbit-human IgG1 LA/LA/PG (antibody, V domains shown)
VH: QSVKESEGGLFKPADTLTLTCTVSGFSLSSNEISWVRQAPGEGLEYIGIIDTGGRAYYAVWARSRSTITRNTNLNTVTLKMTSLTAADTATYFCARGGVDTEWYAFSSWGPGTLVTVPS
VL: SFVLTQPASVQVNLGQTVSLTCTADTLSRRYASWYQQKPGQAPVLLIFRDTSRPSGVPDRFSGSSSGDTATLTISGAQAGDEADYYCATSDGSGSNYQYVFGGGTQLTVTG
notes: Fc-silenced (L234A/L235A/P329G) IgG1, lambda; Alexa Fluor 647-labeled in single-step flow cytometry; Cluster C-1
Consider B1, for which the “Cells stained (%)” value in test [1] was determined as 97.3%. Besides, the “mAb binding (MFI)” value turned out to be 649 in test [2] and 9210 in test [3].

B2: HW-25 chimeric rabbit-human IgG1 LA/LA/PG (antibody, V domains shown)
VH: QSLEESGGRLVTPGTPLTLTCTVSGFSLSSYAMGWVRQAPGKGLEWIGIIDSRGSTYYATWAKGRFTISKTSTTVDLKITSPTTEDTATYFCAREDSYYYDSFNLWGPGTLVTVSS
VL: B1 VL with F48Y, D68N, N96S, Y99C
notes: as for B1
As for B2, the “Cells stained (%)” value in test [1] was 97.7%. Further, the “mAb binding (MFI)” value in test [2] was determined as 839; in test [3], 8720.

B3: HW-17 chimeric rabbit-human IgG1 LA/LA/PG (antibody, V domains shown)
VH: QSLGESRGRLVTPDETLTLTCTVSGIDLSSNAMSWVRQAPGEGLEWIGTINTGGRAYYASWAKGRFTISRTSTTVDLKMTSLTTEDTATYFCARERYSDGRAYDIWGPGTLVTISS
VL: B1 VL with F48Y, R49T, T51S, S52N, V57I, D68N, S90D, N96I
notes: as for B1
On to B3, for which, in test [1], the “Cells stained (%)” value turned out to be 99.3%. Also, the “mAb binding (MFI)” value in test [2] amounted to 1160; in test [3] it was 21000.

B4: HW-45 chimeric rabbit-human IgG1 LA/LA/PG (antibody, V domains shown)
VH: QKQLVESGGRLVTPGTPLTLTCTVSGFSLSSYAMGWFRQAPGKGLEWIGIINSYGSTYYASWAKGRFTISKTSTTVDLKITSPTTEDTATYFCGRRIGSARFDPWGPGTLVTVSS
VL: B1 VL with R30S, F48Y, S52R, D68N, N96S, Q98R, Y99L
notes: Fc-silenced (L234A/L235A/P329G) IgG1, lambda; Alexa Fluor 647-labeled in single-step flow cytometry; Prototype of cluster C-45
In the case of B4, the binding result in test [4], in test [5] and in test [6] was “no binding” throughout.

B5: HW-70 chimeric rabbit-human IgG1 LA/LA/PG (antibody, V domains shown)
VH: QSLEESGGRLVTPGTPLTLTCTVSGFSLSSNAMSWVRQAPGKGLEWIGTIDGYGYTYYASWAKGRFTVSKTSTTVDLKITSPTTEDTATYFCAREIYLGSNFWGPGTLVTISS
VL: B1 VL with F48Y, D68N, S90A, N96S, Y99F
notes: as for B1
B5: in test [1], the “Cells stained (%)” value turned out to be 98.7%. Moreover, the entries for the “mAb binding (MFI)” value in test [2] and in test [3] were 840 and 13800, respectively.

B6: HW-1 chimeric rabbit-human IgG1 LA/LA/PG (antibody, V domains shown)
VH: QSLEESGGGLFKPTDTLTLTCTASGFSLGSSYAISWVRQAPGKELEWIGTIDSGRAYYARWAKSRSTITRNTNENTVTLKMTSLTAADTATYFCARDLIPTYSQDIWGPGTLVTISS
VL: B1 VL with F48Y, D68N, S95N, N96S, G111S
notes: Fc-silenced (L234A/L235A/P329G) IgG1, lambda; Alexa Fluor 647-labeled in single-step flow cytometry; Prototype of cluster C-1
B6: the “Cells stained (%)” value in test [1] is 99.3%. The “mAb binding (MFI)” value worked out at 1140 in test [2] and 17500 in test [3]. The binding result in test [4] and in test [5] was “no binding” throughout.

B7: HW-101 chimeric rabbit-human IgG1 LA/LA/PG (antibody, V domains shown)
VH: QEQLVESGGRLVTPGTPLTLTCKASGFSLGKYDMSWVRQAPGKGLEWIGTIYAGSGSTWYASWAKGRFTISKTSTTVDLKMTSLTTEDTATYFCARDFLGVNSIWGPGTLVTISS
VL: B1 VL with R30S, G40D, F48H, S65N, D68N, Y97F, Q98H, Y99F
notes: Fc-silenced (L234A/L235A/P329G) IgG1, lambda; Alexa Fluor 647-labeled in single-step flow cytometry; Cluster C-97
Regarding B7, in test [7], the “antibody-bound positive cells (%)” value was determined as 95.3%. The binding result in test [4] and in test [6] was “no binding” each time. Further, the “mAb binding (MFI)” value in test [8] is 5940.

B8: HW-97 chimeric rabbit-human IgG1 LA/LA/PG (antibody, V domains shown)
VH: QKQLVESGGRLVTPGTPLTLTCTVTGIDLSSHGMSWVRQAPGKGLEWIGVIYPSGSTWYASWARGRFTISKTSTTVDLKMTSLTTEDTATHFCARGDVGGADNNIWGPGTLVTVSS
VL: B1 VL with N13D, D25E, R30S, F48Y, D68N, N96S
notes: Fc-silenced (L234A/L235A/P329G) IgG1, lambda; Alexa Fluor 647-labeled in single-step flow cytometry; Prototype of cluster C-97
Consider B8, for which, in test [7], the “antibody-bound positive cells (%)” value turned out to be 98.6%. In test [8], the “mAb binding (MFI)” value worked out at 9510.

B9: HW-113 chimeric rabbit-human IgG1 LA/LA/PG (antibody, V domains shown)
VH: QKQLVESGGGLVQPGGSLTLTCTVSGFSLNKYYMGWFRQAPGKGLEWIGVISRSGDTYYSSWAKGRFTISKASTTVDLRITSPTTEDTATYFCARDASSPGFHGDRLDLWGQGTLVTVSS
VL: B1 VL with R30S, F48Y, D68N, S93I, Q98L, Y99W
notes: Fc-silenced (L234A/L235A/P329G) IgG1, lambda; Alexa Fluor 647-labeled in single-step flow cytometry
In the case of B9, the binding result in test [5] and in test [6] was “no binding” in each case.

B10: TH9-0022 (antibody, human IgG1, kappa, L234A L235A, V domains shown)
VH: QSLEESGGRLVTPGTPLTLTCTVSGFSLSSYAMNWVRQAPGKGLEWIGIINSYGSTYYASWAKGRFTISKTSTTVDLKITSPTTEDTATYFCARVTYDSYGYGYAPYGMDLWGPGTLVTVSS
VL: LVMTQTPSSTSNAVGGTVTIKCQASQSIGNVLAWYQQKPGQPPKLLIYAASTLASGVPSRVGGSRSGTEYTLTISGVQREDAATYYCLGSDSDSDIAFGGGTELEILR
notes: also called TH9-022; negative control
Regarding B10, the “mAb binding (MFI)” value in test [8] was 595.

B11: TH9-0022 (antibody, human IgG1, kappa, L234A L235A, V domains shown)
VH: B10 VH
VL: B10 VL
notes: also called TH9-022; negative control IgG1
Regarding B11, in test [7], the “antibody-bound positive cells (%)” value is 2.7%. Further, the binding result in test [4] and in test [5] was “no binding” throughout.
